Data taken from PMC9376891 (Nature Communications, 2022).

Target: T1, Rae1(31-368)-Nup98(157-213) heterodimer (human, UniProt P78406 31-368; P52948 157-213)
T1 construct: also called Rae1-Nup98; Rae1-Nup98 complex
Assay: ITC
Conditions: both partners purified
T1 sequence (P78406 31-368, chain 1 of 2): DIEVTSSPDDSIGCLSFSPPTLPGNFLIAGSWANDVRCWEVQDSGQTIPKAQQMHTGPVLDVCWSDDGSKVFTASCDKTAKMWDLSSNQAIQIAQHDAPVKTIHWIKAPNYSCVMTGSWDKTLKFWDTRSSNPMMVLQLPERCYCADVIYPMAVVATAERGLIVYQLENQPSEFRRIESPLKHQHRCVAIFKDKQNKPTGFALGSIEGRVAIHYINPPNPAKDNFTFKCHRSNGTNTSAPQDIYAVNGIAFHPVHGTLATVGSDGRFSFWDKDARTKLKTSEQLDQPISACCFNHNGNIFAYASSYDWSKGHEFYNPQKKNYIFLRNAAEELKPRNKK
T1 sequence (P52948 157-213, chain 2 of 2): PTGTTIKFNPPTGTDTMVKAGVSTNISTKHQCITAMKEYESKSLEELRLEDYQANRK

Row | Binder | fold reduction of binding affinity against SARS-CoV-2 ORF6 C3 [fold] | Kd [nM] | fold increase of binding affinity against SARS-CoV-2 ORF6 C3 [fold]
1 | YSQLDEEQPMEAD (source: synthetic peptide) [SARS-CoV-2 ORF6 C3 peptide I60A] | ~17.5 | – | –
2 | YSQLDEEQPLEID (source: synthetic peptide) [SARS-CoV-2 ORF6 C3 peptide M58L] | – | 10400 | –
3 | YSQLDEEEPMEID (source: synthetic peptide) [SARS-CoV-2 ORF6 C3 peptide Q56E] | – | – | ~6

Target: T2, Rae1(31-368)-Nup98(157-213) heterodimer (human, UniProt P78406 31-368; P52948 157-213)
T2 construct: also called Rae1-Nup98; Rae1-Nup98 complex
Assay: ITC
Conditions: both partners purified
T2 sequence (P78406 31-368, chain 1 of 2): as the sequence (P78406 31-368, chain 1 of 2) above
T2 sequence (P52948 157-213, chain 2 of 2): as the sequence (P52948 157-213, chain 2 of 2) above

Row | Binder | Ka [M⁻¹] | stoichiometry N | Kd [nM]
4 | YSQLDEEQPLEID (source: synthetic peptide) [SARS-CoV-2 ORF6-M58L] | 96400 | 1 | –
5 | YSQLDEEQPMAID (source: synthetic peptide) [SARS-CoV-2 ORF6-E59A] | 606000 | 0.68 | 1650
6 | YSQLDEEQPMEIA (source: synthetic peptide) [SARS-CoV-2 ORF6-D61A] | 361000 | 0.76 | 2770
7 | YSQLDEEQAMEID (source: synthetic peptide) [SARS-CoV-2 ORF6-P57A] | 1.12e+06 | 2.34 | 890
8 | YSQLDEEQPMEAD (source: synthetic peptide) [SARS-CoV-2 ORF6-I60A] | 238000 | 0.68 | 4200

Target: T2, Rae1(31-368)-Nup98(157-213) heterodimer
Assay: ITC
Conditions: both partners purified
Remark: another data set of the same source

Row | Binder | Ka [M⁻¹] | Kd [nM] | stoichiometry N
9 | YSQLAEEQPMEID (source: synthetic peptide) [SARS-CoV-2 ORF6-D53A] | 863000 | 1150 | 0.71
10 | YSQLDEAQPMEID (source: synthetic peptide) [SARS-CoV-2 ORF6-E55A] | 1.75e+06 | 570 | 0.65
11 | YSQLDAEQPMEID (source: synthetic peptide) [SARS-CoV-2 ORF6-E54A] | 1.72e+06 | 580 | 0.59
12 | YSQLDEEEPMEID (source: synthetic peptide) [SARS-CoV-2 ORF6-Q56E] | 2.08e+07 | 40 | 0.781
